From PMC7082840 (Developmental cell, 2019) come the findings set out here.

This series concerns the molecule itself. As to the kind of experiment: native gel or EMSA.

B1: NEUROG3^S183A (natural protein, human, UniProt Q9Y4Z2 1-214, looked up)
chain: MTPQPSGAPTVQVTRETERSFPRASEDEVTCPTSAPPSPTRTRGNCAEAEEGGCRGAPRKLRARRGGRSRPKSELALSKQRRSRRKKANDRERNRMHNLNSALDALRGVLPTFPDDAKLTKIETLRFAHNYIWALTQTLRIADHSLYALEPPAPHCGELGSPGGSPGDWGSLYSPVSQAGSLAPAASLEERPGLLGATFSACLSPGSLAFSDFL
B1: the binding result is recorded as “binds”.
